# Assay results published in paper PMC7326492 (eLife, 2020).
# Numbering of substitutions follows the chain as printed.
# T1: Activin A.∆D406 (human, UniProt P08476 311-426, ∆D406)
# T1 sequence: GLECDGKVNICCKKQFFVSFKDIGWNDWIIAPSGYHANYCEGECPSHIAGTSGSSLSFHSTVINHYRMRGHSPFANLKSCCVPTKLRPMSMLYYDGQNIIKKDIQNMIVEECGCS
# T2: ACVR1 (UniProt Q04771 21-123)
# T2 sequence (looked up): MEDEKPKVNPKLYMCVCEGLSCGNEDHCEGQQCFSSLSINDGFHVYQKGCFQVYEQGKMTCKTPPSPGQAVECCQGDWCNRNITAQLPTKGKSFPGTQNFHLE
# T3: human ACVR2B.Fc fusion protein (human, UniProt Q13705 19-137)
# T3 construct: Probably the extracellular domain (surmise); Captured on Protein A in one SPR experiment, coupled to the chip in another
# T3 sequence (looked up): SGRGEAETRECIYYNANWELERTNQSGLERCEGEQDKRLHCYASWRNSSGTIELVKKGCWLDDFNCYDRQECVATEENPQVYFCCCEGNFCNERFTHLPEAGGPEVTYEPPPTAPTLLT
# T4: monomeric extracellular domain of ACVR2B (UniProt Q13705 19-137)
# T4 construct: ACVR2B, extracellular domain, monomeric
# T4 sequence (looked up): T3 sequence (looked up)
# B1: human ACVR2B.Fc fusion protein (Fc fusion)
# chain: T3 sequence (looked up)
# B2: Activin A.Nod.F2TL (ligand)
# chain: T1 sequence with G96N, Q97G, N98R
# B3: Activin A.∆D406 (ligand, human, UniProt P08476 311-426, looked up)
# chain: T1 sequence
# notes: also called ActA.ΔD406; source: CHO-K1 cells expressing human Furin, stably expressed, purified (heparin, size exclusion, C4 reverse phase)
# B4: Activin A (ligand, human, UniProt P08476 311-426, looked up)
# chain: GLECDGKVNICCKKQFFVSFKDIGWNDWIIAPSGYHANYCEGECPSHIAGTSGSSLSFHSTVINHYRMRGHSPFANLKSCCVPTKLRPMSMLYYDDGQNIIKKDIQNMIVEECGCS
# notes: Activin A (inhibin beta A chain), human, mature region cloned downstream of the mouse Inhba pro-peptide; the mature dimer was isolated; rhActivin A from R and D Systems is named only for the in vivo implants; also called wild-type Activin A; Activin A WT; source: CHO-K1 cells expressing human Furin, stably expressed, purified (heparin, size exclusion, C4 reverse phase)
# Legend:
# ACVR1 [1] = target: ACVR1 (UniProt Q04771)
# Activin A.∆D406 [2] = target: T1, Activin A.∆D406; experiment: SPR
# Activin A.∆D406 [3] = target: T1, Activin A.∆D406; experiment: SPR; remark: listed apart in the source
# [4] = target: B1; experiment: SPR
# [5] = target: B1; experiment: SPR
# ACVR1 [6] = target: T2, ACVR1; experiment: cell-based or functional assay
# [7] = target: T3, human ACVR2B.Fc fusion protein; experiment: SPR; Biacore 3000, CM5 chip; human ACVR2B.Fc captured on covalently immobilised Protein A; ligand 100nM-0.14 nM flowed at 100 uL/minute; 25°C; HBS-EP (10 mM Hepes, 150 mM NaCl, 3.4 mM EDTA, 0.05% polysorbate 20, pH 7.4); 1:1 binding model with mass transport limitation; conditions: both partners purified
# [8] = target: T4, monomeric extracellular domain of ACVR2B; experiment: SPR; complexes of ligand•type II receptor extracellular domain formed at 1:2.5 ratio and injected over captured ACVR1B-Fc and ACVR1-Fc; conditions: both partners purified
koff [4],Kd [5],binding result [7],Molecule,other results
–,–,–,Activin A (from UniProt P08476 311-426) (ligand),IC50 of inhibition of BMP7 (12 nM)-induced Smad1/5/8 luciferase reporter signal in HEK293 cells (ACVR1 [1]): 1400 pM
–,–,–,B1,koff (Activin A.∆D406 [2]): 0.000254 s⁻¹; Kd (Activin A.∆D406 [3]): 4.62 pM
0.00027 s⁻¹,5.11 pM,–,B2,–
–,–,binds,B3,IC50 of inhibition of BMP7 (12 nM)-induced Smad1/5/8 luciferase reporter signal in HEK293 cells (ACVR1 [6]): 20000 pM
8.46e-05 s⁻¹,4.49 pM,binds,B4,binding result [8]: binds
